This note sets out measurements from patent US20240392020A1 (JIANGSU HENGRUI PHARMACEUTICALS, published 2024).

B1: H5 (antibody)
heavy: not shown
light: DIQMTQSPSSVSASVGDRVTITCRASQDIANYLSWYQQKPGKSPKLLIYGTSNLEVGVPSRFSGSRSGTDFTLTISSLQPEDFATYYCLQDKEFPRTFGGGTKVEIKSGAPRFLTRPKAFVVSVGKDATLSCQIVGNPTPQVSWEKDQQPVAAGARFRLAQDGDLYRLTILDLALGDSGQYVCRARNAIGEAFACVGLQVDAEA
B2: H6 (antibody)
heavy: not shown
light: B1 light with A110C, C195A
B3: H10 (antibody)
heavy: not shown
light: B1 light with R116C, C132S, C183S, C195A
B4: H8 (antibody)
heavy: not shown
light: B1 light with C132S, C183S
B5: H9 (antibody)
heavy: not shown
light: B1 light with A110C, C132S, C183S, C195A
B6: H7 (antibody)
heavy: not shown
light: B1 light with R116C, C195A
B7: R7 (antibody)
heavy: not shown
light: DIQMTQSPSSLSASVGDRVTITCLASEGISSYLAWYQQKPGKAPKLLIYGANSLQTGVPSRFSGSGSATDYTLTISSLQPEDFATYYCQQSYKFPNTFGQGTKVEVKSGAPRFLTRPKAFVVSVGKDATLSCQIVGNPTPQVSWEKDQQPVAAGARFRLAQDGDLYRLTILDLALGDSGQYVCRARNAIGEAFACVGLQVDAEA
B8: R8 (antibody)
heavy: not shown
light: B7 light with A110C, C195A
B9: R11 (antibody)
heavy: not shown
light: B7 light with A110C, C132S, C183S, C195A
B10: R12 (antibody)
heavy: not shown
light: B7 light with R116C, C132S, C183S, C195A
B11: R9 (antibody)
heavy: not shown
light: B7 light with R116C, C195A
B12: H11 (antibody)
heavy: not shown
light: DIQMTQSPSSVSASVGDRVTITCRASQDIANYLSWYQQKPGKSPKLLIYGTSNLEVGVPSRFSGSRSGTDFTLTISSLQPEDFATYYCLQDKEFPRTFGGGTKVEIKQGSPPEFLRFPRPVRVVSGAEAELKCVVLGEPPPVVVWEKGGQQLAASERLSFPADGAEHGLLLTAALPTDAGCYVCRARNAAGEAYAAAAVTVLEPP
B13: H15 (antibody)
heavy: not shown
light: B12 light with C133S, C181V, C184S, A193C
B14: H12 (antibody)
heavy: not shown
light: B12 light with C181V, G191C
B15: H13 (antibody)
heavy: not shown
light: B12 light with C181V, A193C
B16: H14 (antibody)
heavy: not shown
light: B12 light with C133S, C184S

Positions count from the first letter of the chain named.

In the experiment the target is T1, hIL-5 (human, UniProt P05113 20-134).
T1 construct: bought
In words: ELISA.
Method: For an antibody targeting a soluble protein, the binding activity of the antibody against the soluble protein was detected by ELISA. […] After the blocking was completed, the blocking solution was discarded; and the plate was washed 3 times with a PBST buffer (pH 7.4, PBS containing 0.1% tween-20). 100 μL of the antibody solution diluted in a gradient was added to each well, and the mixture was incubated at 37° C. for 1 h. After the incubation was completed, the plate was washed 3 times with PBST. […] The plate was washed 3 times with PBST. […] The reaction was stopped by adding 50 μL of 1 M H₂SO₄ to each well. The absorbance values at 450 nm were read on a microplate reader, the binding curves of the antibodies to an antigen were fitted with software, and the EC₅₀ values were calculated.
B1: the response was half-maximal at 3.4 nM (EC50).
As to B2, the half-maximal effective concentration (EC50) (usually the concentration giving half of the maximal effect) came out at 2.1 nM.
The value for B3 was 2.86 nM; that for B4 was 2.11 nM; that for B5 was 2.92 nM.
The value for B6 was 2.7 nM; that for B7 was 4.89 nM; that for B8 was 3.84 nM.
In turn, B9 came in with a concentration for a half-maximal effect (EC50) of 3.3 nM.
With B10 the figure was 4.36 nM; with B11, 3.95 nM; with B12, 3.38 nM.
With B13 the figure was 4.26 nM; with B14, 4.34 nM; with B15, 3.56 nM.
The value for B16 was 2.61 nM.
